The test addresses T1, β-TrCP, endogenous, Q9Y297.
T1 chain: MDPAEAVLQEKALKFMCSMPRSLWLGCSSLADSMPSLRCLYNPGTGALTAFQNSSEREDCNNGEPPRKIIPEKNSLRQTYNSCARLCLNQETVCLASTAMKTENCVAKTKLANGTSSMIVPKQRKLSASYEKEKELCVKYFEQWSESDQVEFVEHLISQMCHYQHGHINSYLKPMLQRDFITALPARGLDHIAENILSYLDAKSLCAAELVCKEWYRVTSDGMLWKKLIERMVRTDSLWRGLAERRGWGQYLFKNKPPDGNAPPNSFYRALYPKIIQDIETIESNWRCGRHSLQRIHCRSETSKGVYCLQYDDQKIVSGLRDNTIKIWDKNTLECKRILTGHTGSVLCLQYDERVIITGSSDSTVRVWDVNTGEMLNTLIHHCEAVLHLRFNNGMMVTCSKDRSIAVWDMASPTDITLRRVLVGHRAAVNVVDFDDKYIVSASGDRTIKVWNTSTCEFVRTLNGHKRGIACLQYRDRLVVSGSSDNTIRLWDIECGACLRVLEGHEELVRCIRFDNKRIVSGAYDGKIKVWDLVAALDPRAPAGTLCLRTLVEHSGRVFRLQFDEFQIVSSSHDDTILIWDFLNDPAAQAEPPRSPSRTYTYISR
The test can be described thus: co-immunoprecipitation (IP against Flag tag, Western blot quantification). The following applies: chain shown with the change; HEK293T cells, 48 h overexpression, N = 3; parent: est. 1.0; read off a plot. (Immunoblotting shows a protein as a band on a membrane.)

B1: Flag-PLK4 wt (polo-like kinase 4), full-length, O00444 K41R (protein)
chain: MATCIGEKIEDFKVGNLLGKGSFAGVYRAESIHTGLEVAIRMIDKKAMYKAGMVQRVQNEVKIHCQLKHPSILELYNYFEDSNYVYLVLEMCHNGEMNRYLKNRVKPFSENEARHFMHQIITGMLYLHSHGILHRDLTLSNLLLTRNMNIKIADFGLATQLKMPHEKHYTLCGTPNYISPEIATRSAHGLESDVWSLGCMFYTLLIGRPPFDTDTVKNTLNKVVLADYEMPSFLSIEAKDLIHQLLRRNPADRLSLSSVLDHPFMSRNSSTKSKDLGTVEDSIDSGHATISTAITASSSTSISGSLFDKRRLLIGQPLPNKMTVFPKNKSSTDFSSSGDGNSFYTQWGNQETSNSGRGRVIQDAEERPHSRYLRRAYSSDRSGTSNSQSQAKTYTMERCHSAEMLSVSKRSGGGENEERYSPTDNNANIFNFFKEKTSSSSGSFERPDNNQALSNHLCPGKTPFPFADPTPQTETVQQWFGNLQINAHLRKTTEYDSISPNRDFQGHPDLQKDTSKNAWTDTKVKKNSDASDNAHSVKQQNTMKYMTALHSKPEIIQQECVFGSDPLSEQSKTRGMEPPWGYQNRTLRSITSPLVAHRLKPIRQKTKKAVVSILDSEEVCVELVKEYASQEYVKEVLQISSDGNTITIYYPNGGRGFPLADRPPSPTDNISRYSFDNLPEKYWRKYQYASRFVQLVRSKSPKITYFTRYAKCILMENSPGADFEVWFYDGVKIHKTEDFIQVIEKTGKSYTLKSESEVNSLKEEIKMYMDHANEGHRICLALESIISEEERKTRSAPFFPIIIGRKPGSTSSPKALSPPPSVDSNYPTRERASFNRMVMHSAASPTQAPILNPSMVTNEGLGLTTTASGTDISSNSLKDCLPKSAQLLKSVFVKNVGWATQLTSGAVWVQFNDGSQLVVQAGVSSISYTSPNGQTTRYGENEKLPDYIKQKLQCLSSILLMFSNPTPNFH
As to B1, the ratio to parent is 0.07.

B2: Flag-PLK4 wt (polo-like kinase 4), full-length, O00444 S285A; T289A (protein)
chain: MATCIGEKIEDFKVGNLLGKGSFAGVYRAESIHTGLEVAIKMIDKKAMYKAGMVQRVQNEVKIHCQLKHPSILELYNYFEDSNYVYLVLEMCHNGEMNRYLKNRVKPFSENEARHFMHQIITGMLYLHSHGILHRDLTLSNLLLTRNMNIKIADFGLATQLKMPHEKHYTLCGTPNYISPEIATRSAHGLESDVWSLGCMFYTLLIGRPPFDTDTVKNTLNKVVLADYEMPSFLSIEAKDLIHQLLRRNPADRLSLSSVLDHPFMSRNSSTKSKDLGTVEDSIDAGHAAISTAITASSSTSISGSLFDKRRLLIGQPLPNKMTVFPKNKSSTDFSSSGDGNSFYTQWGNQETSNSGRGRVIQDAEERPHSRYLRRAYSSDRSGTSNSQSQAKTYTMERCHSAEMLSVSKRSGGGENEERYSPTDNNANIFNFFKEKTSSSSGSFERPDNNQALSNHLCPGKTPFPFADPTPQTETVQQWFGNLQINAHLRKTTEYDSISPNRDFQGHPDLQKDTSKNAWTDTKVKKNSDASDNAHSVKQQNTMKYMTALHSKPEIIQQECVFGSDPLSEQSKTRGMEPPWGYQNRTLRSITSPLVAHRLKPIRQKTKKAVVSILDSEEVCVELVKEYASQEYVKEVLQISSDGNTITIYYPNGGRGFPLADRPPSPTDNISRYSFDNLPEKYWRKYQYASRFVQLVRSKSPKITYFTRYAKCILMENSPGADFEVWFYDGVKIHKTEDFIQVIEKTGKSYTLKSESEVNSLKEEIKMYMDHANEGHRICLALESIISEEERKTRSAPFFPIIIGRKPGSTSSPKALSPPPSVDSNYPTRERASFNRMVMHSAASPTQAPILNPSMVTNEGLGLTTTASGTDISSNSLKDCLPKSAQLLKSVFVKNVGWATQLTSGAVWVQFNDGSQLVVQAGVSSISYTSPNGQTTRYGENEKLPDYIKQKLQCLSSILLMFSNPTPNFH
As to B2, the ratio to parent turned out to be 0.03.

Source of the values: PMC10942865.
